What was measured:
TgHDAC3 = details: low doses, RH strain; cited from earlier work
[1] = system: T. gondii-infected HFF cells; experiment: FR235222 treatment and induction of BCLA (proteomics, western blot, immunofluorescence); format: cell-based, Toxoplasma gondii
Method: Host cells and parasites culture. HFF primary cells (Bougdour et al., 2009), RAW264.7, L929, HCT116, A549 and HEK293 cells were cultured in Dulbecco's Modified eagle Medium (DMEM) (Thermo fischer Scientific, France) supplemented with 10% heat-inactivated fetal Bovine Serum (FBS) (Invitrogen), 10 mM (4-(2-hydroxyethyl)-1-piperazine ethanesulphonic acid) (HEPES) buffer pH 7.2, 2 mM L-glutamine and 50 μg/ml of penicillin and streptomycin (Thermo Fisher Scientific). Cells were incubated at 37° C. in 5% CO2. The following Toxoplasma strains were used in this study: type I (RH, GT1), type II (ME49), type III (CTG), atypical (COUG), Neospora caninum; RHΔku80 (Huynh and Carruthers, 2009), PruΔku80 (Fox et al., 2011), PruA7 (Saeij et al., 2007), COUGΔmyr1 (Hakimi, unpublished), PruΔku80Δbcla, PruΔku80-HF-BCLA and 76k-GFP-luc-Δbcla obtained in this study. All parasite strains were maintained in vitro by serial passage on monolayers of HFFs. T. gondii transfection. T. gondii RHΔku80, PruΔku80 and 76k-GFP-luc were electroporated with vectors in cytomix buffer (120 mM KCl, 0.15 mM CaCl2, 10 mM K2HPO4/KH2PO4, pH 7.6, 25 mM HEPES pH 7.6, 2 mM EGTA, 5 mM MgCl2) using a BTX ECM 630 machine (Harvard Apparatus). Electroporation was performed in a 2 mm cuvette at 1.100 V, 25Ω and 25 μF. Stable transgenic parasites were selected with 1 μM pyrimethamine, single-cloned in 96 well plates by limiting dilution and verified by immunofluorescence assay.
FR235222 treatment and induction. FR235222 was provided by Astellas Pharma Inc. (Osaka, Japan) and dissolved into DMSO as described by Bougdour et al., 2009 and the final concentration in culture medium was either 25 ng/mL or 50 ng/mL. The media containing FR235222 was added to infected HFF cells 16 hours after infection for 24 h to 7 days.
Immunofluorescence microscopy. Immunofluorescence assays on in vitro parasites were performed as described previously (Braun et al., 2013). In brief, T. gondii-infected HFF cells grown on coverslips or cysts purified from brains of mice were fixed in 3% formaldehyde for 20 min at room temperature, permeabilised with 0.1% (v/v) Triton X-100 for 15 min and blocked in phosphate-buffered saline (PBS) containing 3% (v/v) bovine serum albumin (BSA). For immunolabeling on histological sections of brains, the brain layers spotted on glass slides were first solvent-dewaxed using toluene for 3*10 min and absolute alcohol for 3*10 min. The slides were then treated with citrate buffer pH 6, heated at 100° C. during 1 hour, rinsed with water for 2*10 min and blocked in PBS containing 3% (v/v) bovine serum albumin (BSA). The cells or brain layers were then incubated for 1 hour with the primary antibodies indicated in the figures followed by the addition of secondary antibodies conjugated to Alexa Fluor 488 or 594 (Molecular Probes) at a 1:1,000 dilution for 1 hour. Nuclei of both host cells and parasites were stained for 10 min at room temperature with Hoechst 33258 at 2 μg/ml in PBS. Coverslips were mounted on a glass slide with Mowiol mounting medium, images were acquired with a fluorescence ZEISS ApoTome.2 microscope and images were processed by ZEN software (Zeiss).
Western Blot. Proteins were separated by SDS-PAGE and transferred to a polyvinylidene fluoride membrane (Immobilon-P; EMP Millipore) by liquid transfer, and Western blots were probed using appropriate primary antibodies followed by phosphatase-conjugated goat secondary antibodies (Promega). Signals were detected using NBT-BCIP (Amresco).

[2] = Solubility of rBCLA recombinantly expressed in E. coli; format: physicochemical; details: native, N-terminal poly-histidine tag
Method: Recombinant expression. Transformation was performed using BL21(DE3)-CodonPlus—RIL chemically competent E. coli (Stratagene) which were incubated on ice with 1 μg of the pet30-(a) Cter-BCLA plasmid for 10 minutes, heat shocked at 42° C. for 45 seconds, pre-incubated 45 min in LB at 37° C. then spread on a LB agar plate containing Kanamycin (Kan) and Chloramphenicol (Chlo) and incubated for 12 h. A single colony was then picked to inoculate a LB/Kan/Chlo 50 ml pre-culture grown for 16 h. 5 ml of grown pre-culture were then used to inoculate 1 L flasks of Terrific Broth medium (Formedium) containing Chlo/Kan. Cultures were grown at 37° C. until reaching an OD600 of 0.5-0.8 then induced by adding 0.7 mM IPTG (VWR) and further incubated at 18° C. ON. After incubation, cells were centrifuged 25 min at 3000 G, the supernatant was discarded and the pellet flash frozen in liquid nitrogen and kept at −80° C.
Lysis. Purification was performed on 3 pellets of 1 L cultures, each resuspended in 50 ml of lysis buffer containing 600 mM NaCl, 50 mM Tris pH 8, 5 mM Beta-mercaptoethanol (BME), 0.2% w/v N-Lauryl Sarkozine and 1 Complete anti protease cocktail (Roche) tab per 50 ml. Lysis was performed using a 10 mini-pulsed sonication (15 sec ON, 30 sec OFF) at 50° amplitude over ice with the lysate never reaching a temperature over 13° C. […]

[3] = system: anti-T. gondii IgG antibodies of mice; experiment: Western-blot BCLA serological testing on mice sera; format: binding
Method: Mice and Experimental Infection. 6-weeks-old BALBC/c, CBA, NMRI or Swiss mice were obtained from Janvier Laboratories (Le Genest-Saint-Isle, France). Mouse care and experimental procedures were performed under pathogen free conditions in accordance with established institutional guidance and approved protocols from the Institutional Animal Care and Use Committee of the University Grenoble Alpes (agreement no B3851610006). Female mice were used for all studies. For intraperitoneal (i.p.) infection, tachyzoites were grown in vitro and extracted from host cells by passage through a 27-gauge needle, washed three times in PBS, and quantified with a haemocytometer. Parasites were diluted in Hank's Balanced Salt Solution (Life), and mice were inoculated by the i.p. route with tachyzoites of each strain (in 200 μl) using a 28-gauge needle. For oral gavage of infective cysts, brains from chronically infected mice (76k-GFP-luc and 76k-GFP-luc-Δbcla) were crushed in PBS, the number of cysts was microscopically quantified and the mice were forced fed with 100 μl of brain homogenate containing 20 to 40 cysts using ball-tipped feeding needle. Blood was collected by caudal puncture or by intracardiac puncture when the mice were euthanised. Animal euthanasia was completed in an approved CO2 chamber. For histological analysis of ileum and immunolabeling on histological sections of brains or, the ilea and brains were removed from mice, entirely embedded in a paraffin wax block and cut in 5 μm-thick layers using microtome. For statistical analysis of mice survival data, the Mantel-Cox and Gehan-Breslow-Wilcoxon tests were used.
Western-blot BCLA serological testing. Single western blot strips were prepared using 15 well 4-12% NuPage gels (Life technologies) loaded with 5 μl of sample at 0.1 mg/ml. The gels were run at 185 v for 40 minutes in MES buffer then electro-transferred at 105 v for 1.5 h on PVDF membranes. The transferred lanes were then cut-out into individualized strips. The strips were then blocked in TTBS with 5% powdered milk (w/v) for 1 h. Serum testing was then performed in TTBS with a dilution of 1/400 of the serum for 1 h at 4° C. The strips were then washed 3 times in TTBS and further incubated 1 h with a 1/7500 dilution of secondary antibody targeting either mouse IgGs or human IgGs and coupled with a phosphatase alkaline enzyme (Promega). […] Bands in the positive sera appear within 1 to 5 minutes. In parallel to the serum testing, a single strip was always used as an internal antigen control for each blot set. After blocking, this strip was incubated for 1 h with a peroxidase coupled anti poly-histidine monoclonal antibody (Sigma) diluted 1/2000 in TTBS. […] For each series of i.p. or orally infected mice, a serum of at least on mouse of each series was checked for Toxoplasma antibodies using Western blot analysis of the IgG immune response using the commercial kit LD bio Toxoplasma mouse IgG (LD bio), with the same anti-mouse IgG-alkaline phosphatase conjugate and chromogenic substrate previously described for BCLA.

[4] = system: anti-T. gondii IgG antibodies of mice; experiment: Western-blot BCLA serological testing on mice sera; format: binding; remark: listed apart in the source
[5] = system: trypsin, chymotrypsin, elastase and papain; experiment: Limited proteolysis of rBCLA; format: physicochemical; details: 1/30 w/w, up to 50 minutes at 37° C.
Method: Limited proteolysis to find antigenic sub-fragments within Cter-BCLA. To recover a highly antigenic sub-fragment of Cter-BCLA, a limited proteolysis on the purified sample was undertaken using trypsin, chymotrypsin, elastase and papain (all Sigma Aldrich). Reactions were carried out in 30 μl reaction volume in 50 mM Tris pH 8.0, 150 mM NaCl, 5 mM BME and 0.5 mM MgCl2. In each reaction, 3 μg of Cter-BCLA were digested by 100 ng of protease (1/30 w/w) over the course of 50 minutes at 37° C. Reactions were stopped at each time point by the addition of 10 μl of SDS PAGE loading buffer followed by 5 minutes heating at 95° C. then kept on ice until loading on the gel.

For FR235222, the “in vitro tachyzoite to bradyzoite stage conversion” value (TgHDAC3) is given as “induces”, the “BCLA protein induction (quantitative proteomics LC-MS/MS)” value ([1]; FR235222 90 nM versus DMSO 0.1%, type II (PruΔku80) strain in primary human fibroblasts) is given as “significantly induced” and the “BCLA signal intensity (western blot, ~140-kDa band)” value ([1]; FR235222 versus untreated tachyzoites) is given as “significantly increased”. The “BCLA signal intensity upon FR235222 (immunofluorescence, per PV)” value ([1]; type I (GT1 and RHΔku80) and haplogroup 11 (COUG) strains) was “rather moderate”, the “BCLA signal intensity upon FR235222 (immunofluorescence, per PV)” value ([1]; type II (PruΔku80, ME49, 76K-GFP-Luc) strain) was “very strong induction” and the “BCLA signal intensity upon FR235222 (immunofluorescence, per PV)” value ([1]; type III (CTG) strain) was “faint (if no) signal”.

B1: rBCLA: C-terminal antigenic domain, res 1089-1275 of BCLA (SEQ ID NO:2), expressed in E. coli as recombinant protein (protein)
chain: MIPGVGDKTEASVLDSIENAVQKVLENLLKAAAGELQPAEAEEARLLVADLKAVVDTAEQVRVEGEAFFRASVDLYEAVKNLRDSEEKLRPLTKGELVDVVRQFLATQIFVQDRASAFLRVFERLAELLAAEQMKAVFAMVEEGVSSSERVARVAGELVPMMKKDRERRYGDLVAVTSWFMRRMEHI
modifications: Synthetic C-terminal antigenic domain (res 1089-1275)
With B1 the “solubility on expression in E. coli” value [2] was “natively insoluble”, the “reactivity of rBCLA with mice sera (immunoblot)” value (from here on “reactivity … (immunoblot)”) ([3]; FIG. 8a: NMRI mice, i.p. 10^4 tachyzoites COUG and COUG-Δmyr1, 7 days (acute)) was “not reacting” and the “reactivity … (immunoblot)” value ([3]; FIG. 8b: CBA mice, i.p. 10^3 tachyzoites RH (type I), 7 days (acute)) was “not reacting”. The “reactivity … (immunoblot)” value ([3]; FIG. 9a: Balb/c mice, i.p. 10^3 to 10^6 tachyzoites PruA7 (type II), 42 days) was “reacting quite proportionally”, the “reactivity … (immunoblot)” value ([3]; FIG. 9b: CBA mice, i.p. 10^6 tachyzoites ME49 (type II), 80 days) was “strongly reacting” and the “reactivity … (immunoblot)” value ([3]; FIG. 9c: NMRI mice, oral 20 cysts 76k-GFP-luc (type II), 22 months) was “strongly reacting”. For the same molecule, the “reactivity … (immunoblot)” value ([3]; FIG. 9e: CBA mice, i.p. 10^3 tachyzoites RH (type I) followed by pyrimethamine or sulfadiazine treatment, 22 days) was “very slightly reacting”, the “reactivity … (immunoblot)” value ([3]; FIG. 9f: NMRI mice, i.p. 10^6 tachyzoites CTG (type III), 42 days) was “not reacting” and the “reactivity … (immunoblot)” value ([3]; FIG. 9g: NMRI mice, i.p. 10^6 tachyzoites PruΔku80 (type II), 42 days) was “not reacting”. The “reactivity … (immunoblot)” value ([3]; FIG. 11a: Swiss mice i.p. infected with T. gondii PCR positive human amniotic fluid (confirmed congenital toxoplasmosis)) was “strongly reacting”, the “reactivity … (immunoblot)” value ([3]; FIG. 9h: Balb/c mice, i.p. 10^5 tachyzoites 76k-GFP-luc (type II), reactivating or not with corticosteroids, 42 days) was “strongly reacting” and the “reactivity … (immunoblot)” value ([3]; FIG. 9d: Balb/c mice, i.p. 10^6 tachyzoites 76k-GFP-luc (type II), 21 days) was “strongly reacting”. For the same molecule, the “reactivity … (immunoblot)” value ([3]; FIG. 9d: Balb/c mice, i.p. 10^6 tachyzoites 76k-GFP-luc-Δbcla (type II), 21 days) was “barely reacting”, the “reactivity … (immunoblot)” value ([4]; FIG. 8c: C57BL/6 mice, oral 47 cysts 76k-GFP-luc or 76k-GFP-luc-Δbcla (type II), 8 days (acute)) was “not reacting” and the “reactivity of rBCLA with anti-T. gondii IgM and IgA” value ([4]; mice sera, data not shown) was “not reacting”. The “degradation by protease (SDS PAGE)” value ([5]; chymotrypsin) was “quickly degraded” and the “degradation by protease (SDS PAGE)” value ([5]; elastase, trypsin and papain, stable fragments around the 17-kDa marker) was “partially degraded”.

Source: patent US20220390449A1, “NEW S[…] FOR THE LATENT FORM OF TOXOPLASMOSIS” (INSERM (INSTITUT NATIONAL DE LA SANTÉ ET DE LA RECHERCHE …, priority 2019, published 2022)
